The record followed here is doi:10.1101/2021.04.26.441525 (bioRxiv, 2021).

As usually defined, the stoichiometry N is a count of units in the complex or per binding partner.

The series deals with the molecule itself. Description: crystal structure.

B1: BT_1526 myo-inositol phosphate synthase (MIPS) of Bacteroides thetaiotaomicron VPI-5482 (enzyme, UniProt Q8A7J8 1-429, looked up)
chain: MKQEIKPATGRLGVLVVGVGGAVATTMIVGTLASRKGLAKPIGSITQLATMRMENNEEKLIKDVVPLTDLNDIVFGGWDIFPDNAYEAAMYAEVLKEKDLNGVKDELEAIKPMPAAFDHNWAKRLNGTHIKKAATRWEMVEQLRQDIRDFKAANNCERVVVLWAASTEIYIPLSDEHMSLAALEKAMKDNNTEVISPSMCYAYAAIAEDAPFVMGAPNLCVDTPAMWEFSKQKNVPISGKDFKSGQTLMKTVLAPMFKTRMLGVNGWFSTNILGNRDGEVLDDPDNFKTKEVSKLSVIDTIFEPEKYPDLYGDVYHKVRINYYPPRKDNKEAWDNIDIFGWMGYPMEIKVNFLCRDSILAAPIALDLVLFSDLAMRAGMCGIQTWLSFFCKSPMHDFEHQPEHDLFTQWRMVKQTLRNMIGEKEPDYLA
As to B1, the “stoichiometry N” value came out at 4.
